The record followed here is the RNAGym collection of RNA variant scans (doi:10.1021/acssynbio.7b00057).

B1: Pistol ribozyme (parent)
chain: GGGUCGUUGUUCCAUAAUCGCGUGGAUAUGGCACGCAAGUUUCUACCGGGCACCGUAAAUGUCCGACUGGAGCCGUUCGGGCGGCUAUAAACAGACCUCAGGCCCGAAGCGUGGCGGCACCUGCCGCCGGUGGUAAAAAAGAUCGGAAGAGCACACGUCU

This data set covers variants of B1. Nature of the data set: aptazyme ON/OFF ratio, guanine; higher = stronger switching; co-transcriptional cleavage with and without guanine.
Take GGGUCGCAAACCCAUAAUCGCGUGGAUAUGGCACGCAAGUUUCUACCGGGCACCGUAAAUGUCCGACUGGAGCCGUUCGGGCGGCUAUAAACAGACCUCAGGCCCGAAGCGUGGCGGCACCUGCCGCCGGUGGUAAAAAAGAUCGGAAGAGCACACGUCU [U7C U8A G9A U10A U11C]: the “aptazyme ON/OFF ratio” value came to 1.02. The result for GGGUCGCAAACAAAUAAUCGCGUGGAUAUGGCACGCAAGUUUCUACCGGGCACCGUAAAUGUCCGACUGGAGCCGUUCGGGCGGCUAUAAACAGACCUCAGGCCCGAAGCGUGGCGGCACCUGCCGCCGGUGGUAAAAAAGAUCGGAAGAGCACACGUCU [U7C U8A G9A U10A U11C C12A C13A] reads 1.17; that for GGGUCGCAAACAUAUAAUCGCGUGGAUAUGGCACGCAAGUUUCUACCGGGCACCGUAAAUGUCCGACUGGAGCCGUUCGGGCGGCUAUAAACAGACCUCAGGCCCGAAGCGUGGCGGCACCUGCCGCCGGUGGUAAAAAAGAUCGGAAGAGCACACGUCU [U7C U8A G9A U10A U11C C12A C13U], 1.16. Regarding GGGUCGCAAACAGAUAAUCGCGUGGAUAUGGCACGCAAGUUUCUACCGGGCACCGUAAAUGUCCGACUGGAGCCGUUCGGGCGGCUAUAAACAGACCUCAGGCCCGAAGCGUGGCGGCACCUGCCGCCGGUGGUAAAAAAGAUCGGAAGAGCACACGUCU [U7C U8A G9A U10A U11C C12A C13G], the “aptazyme ON/OFF ratio” value is 1.12.

Consider GGGUCGCAAACGAAUAAUCGCGUGGAUAUGGCACGCAAGUUUCUACCGGGCACCGUAAAUGUCCGACUGGAGCCGUUCGGGCGGCUAUAAACAGACCUCAGGCCCGAAGCGUGGCGGCACCUGCCGCCGGUGGUAAAAAAGAUCGGAAGAGCACACGUCU [U7C U8A G9A U10A U11C C12G C13A], for which the “aptazyme ON/OFF ratio” value worked out at 1.14. In the case of GGGUCGCAAACGUAUAAUCGCGUGGAUAUGGCACGCAAGUUUCUACCGGGCACCGUAAAUGUCCGACUGGAGCCGUUCGGGCGGCUAUAAACAGACCUCAGGCCCGAAGCGUGGCGGCACCUGCCGCCGGUGGUAAAAAAGAUCGGAAGAGCACACGUCU [U7C U8A G9A U10A U11C C12G C13U] it was 1.18. In the case of GGGUCGCAAACGGAUAAUCGCGUGGAUAUGGCACGCAAGUUUCUACCGGGCACCGUAAAUGUCCGACUGGAGCCGUUCGGGCGGCUAUAAACAGACCUCAGGCCCGAAGCGUGGCGGCACCUGCCGCCGGUGGUAAAAAAGAUCGGAAGAGCACACGUCU [U7C U8A G9A U10A U11C C12G C13G] it was 1.35; in that of GGGUCGCAAACUCAUAAUCGCGUGGAUAUGGCACGCAAGUUUCUACCGGGCACCGUAAAUGUCCGACUGGAGCCGUUCGGGCGGCUAUAAACAGACCUCAGGCCCGAAGCGUGGCGGCACCUGCCGCCGGUGGUAAAAAAGAUCGGAAGAGCACACGUCU [U7C U8A G9A U10A U11C C12U], 1.09. With GGGUCGCAAACACAUAAUCGCGUGGAUAUGGCACGCAAGUUUCUACCGGGCACCGUAAAUGUCCGACUGGAGCCGUUCGGGCGGCUAUAAACAGACCUCAGGCCCGAAGCGUGGCGGCACCUGCCGCCGGUGGUAAAAAAGAUCGGAAGAGCACACGUCU [U7C U8A G9A U10A U11C C12A], the “aptazyme ON/OFF ratio” value came out at 1.16. In the case of GGGUCGCAAACGCAUAAUCGCGUGGAUAUGGCACGCAAGUUUCUACCGGGCACCGUAAAUGUCCGACUGGAGCCGUUCGGGCGGCUAUAAACAGACCUCAGGCCCGAAGCGUGGCGGCACCUGCCGCCGGUGGUAAAAAAGAUCGGAAGAGCACACGUCU [U7C U8A G9A U10A U11C C12G] it was 1.21; in that of GGGUCGCAAAAGUAUAAUCGCGUGGAUAUGGCACGCAAGUUUCUACCGGGCACCGUAAAUGUCCGACUGGAGCCGUUCGGGCGGCUAUAAACAGACCUCAGGCCCGAAGCGUGGCGGCACCUGCCGCCGGUGGUAAAAAAGAUCGGAAGAGCACACGUCU [U7C U8A G9A U10A U11A C12G C13U], 1.22; in that of GGGUCGCAAAAUCAUAAUCGCGUGGAUAUGGCACGCAAGUUUCUACCGGGCACCGUAAAUGUCCGACUGGAGCCGUUCGGGCGGCUAUAAACAGACCUCAGGCCCGAAGCGUGGCGGCACCUGCCGCCGGUGGUAAAAAAGAUCGGAAGAGCACACGUCU [U7C U8A G9A U10A U11A C12U], 1.19.

GGGUCGCAAAAUUAUAAUCGCGUGGAUAUGGCACGCAAGUUUCUACCGGGCACCGUAAAUGUCCGACUGGAGCCGUUCGGGCGGCUAUAAACAGACCUCAGGCCCGAAGCGUGGCGGCACCUGCCGCCGGUGGUAAAAAAGAUCGGAAGAGCACACGUCU [U7C U8A G9A U10A U11A C12U C13U]: the “aptazyme ON/OFF ratio” value came to 1.13. In the case of GGGUCGCAAAAUGAUAAUCGCGUGGAUAUGGCACGCAAGUUUCUACCGGGCACCGUAAAUGUCCGACUGGAGCCGUUCGGGCGGCUAUAAACAGACCUCAGGCCCGAAGCGUGGCGGCACCUGCCGCCGGUGGUAAAAAAGAUCGGAAGAGCACACGUCU [U7C U8A G9A U10A U11A C12U C13G] it was 1.17; in that of GGGUCGCAAAAUAAUAAUCGCGUGGAUAUGGCACGCAAGUUUCUACCGGGCACCGUAAAUGUCCGACUGGAGCCGUUCGGGCGGCUAUAAACAGACCUCAGGCCCGAAGCGUGGCGGCACCUGCCGCCGGUGGUAAAAAAGAUCGGAAGAGCACACGUCU [U7C U8A G9A U10A U11A C12U C13A], 1.2. The result for GGGUCGCAAAACAAUAAUCGCGUGGAUAUGGCACGCAAGUUUCUACCGGGCACCGUAAAUGUCCGACUGGAGCCGUUCGGGCGGCUAUAAACAGACCUCAGGCCCGAAGCGUGGCGGCACCUGCCGCCGGUGGUAAAAAAGAUCGGAAGAGCACACGUCU [U7C U8A G9A U10A U11A C13A] reads 1.16; that for GGGUCGCAAAACGAUAAUCGCGUGGAUAUGGCACGCAAGUUUCUACCGGGCACCGUAAAUGUCCGACUGGAGCCGUUCGGGCGGCUAUAAACAGACCUCAGGCCCGAAGCGUGGCGGCACCUGCCGCCGGUGGUAAAAAAGAUCGGAAGAGCACACGUCU [U7C U8A G9A U10A U11A C13G], 1.12; that for GGGUCGCAAAACUAUAAUCGCGUGGAUAUGGCACGCAAGUUUCUACCGGGCACCGUAAAUGUCCGACUGGAGCCGUUCGGGCGGCUAUAAACAGACCUCAGGCCCGAAGCGUGGCGGCACCUGCCGCCGGUGGUAAAAAAGAUCGGAAGAGCACACGUCU [U7C U8A G9A U10A U11A C13U], 1.1.
